From US11666658B2, “Rifamycin analogs and antibody-drug conjugates thereof” (Regeneron Pharmaceuticals, Inc., priority 2018, dated 2023) come the findings set out here.

In assay [1] the test system is parental HEK293 cells. Briefly: Electrochemiluminescence (ECL) antibody binding assay on cells, non-specific binding control. Further details: species or system human. The method, then: (§1) The ability of anti-MSR1 monoclonal antibodies to bind to human or monkey MSR1 expressing cells was determined using electrochemiluminescence (ECL) based detection.
(§2) Two cell lines overexpressing either human or monkey MSR1 were generated. To generate the human MSR1 overexpressing cell line, human embryonic kidney (HEK) 293 cells were engineered by transduction with hygromycin resistant lentiviral vector encoding full length human MSR1 (hMSR1, amino acids M1-L451 of accession number NP_619729.1) with a C-terminal Myc tag. The resulting cell line is referred to as HEK293.Myc.hMSR1. Similarly, to generate the monkey MSR1 overexpressing cell line, HEK293 cells were engineered by transfection with the geneticin resistant expression plasmid encoding full length monkey MSR1 (Macaca fascicularis, mfMSR1, amino acids M1-L451 of accession number XP_005562705.1). The resulting cell line is referred to as HEK293.mfMSR1 cells. To measure the ability of antibodies to bind to endogenously expressed human MSR1, THP-1 human monocytic cells were treated with 200 nM of phorbol 12-myristate 13-acetate (PMA; Sigma, Cat #P8139) for 72 hours to induce high MSR1 expression prior to antibody binding.
(§3) Luminescence intensity, measured in relative light units (RLU), was recorded to indicate the binding intensity of each antibody at the range of concentrations.

The target of assay [2] is T1, endogenously expressed human MSR1 on PMA-treated THP-1 cells (Homo sapiens, UniProt P21757).
T1 construct: endogenously expressed human MSR1; endogenous in cells; host or cells: THP-1 cells treated with 200 nM PMA
T1 sequence (P21757 1-451): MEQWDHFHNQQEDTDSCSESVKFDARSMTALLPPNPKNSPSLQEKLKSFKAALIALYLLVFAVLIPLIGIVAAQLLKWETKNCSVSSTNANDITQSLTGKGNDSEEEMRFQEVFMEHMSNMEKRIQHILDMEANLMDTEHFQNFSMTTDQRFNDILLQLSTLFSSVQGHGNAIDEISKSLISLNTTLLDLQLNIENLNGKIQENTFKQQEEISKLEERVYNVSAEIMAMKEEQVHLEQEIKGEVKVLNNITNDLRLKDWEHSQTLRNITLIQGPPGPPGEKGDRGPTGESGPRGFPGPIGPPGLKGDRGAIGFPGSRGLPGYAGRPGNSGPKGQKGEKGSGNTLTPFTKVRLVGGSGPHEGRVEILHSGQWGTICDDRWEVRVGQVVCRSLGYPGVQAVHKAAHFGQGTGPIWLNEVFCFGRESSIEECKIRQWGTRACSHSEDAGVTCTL
Description: Electrochemiluminescence (ECL) antibody binding assay on cells. The method, then:
as §1, §2, §3

Assay [3] deals with T2, mouse MSR1 extracellular domain (His9-mMSR1) (Mus musculus, UniProt P30204).
T2 construct: mouse MSR1 extracellular domain expressed with a N-terminal nonahistidine tag; purchased R&D Systems 1797-MS
T2 sequence (P30204 79-458 limits assumed): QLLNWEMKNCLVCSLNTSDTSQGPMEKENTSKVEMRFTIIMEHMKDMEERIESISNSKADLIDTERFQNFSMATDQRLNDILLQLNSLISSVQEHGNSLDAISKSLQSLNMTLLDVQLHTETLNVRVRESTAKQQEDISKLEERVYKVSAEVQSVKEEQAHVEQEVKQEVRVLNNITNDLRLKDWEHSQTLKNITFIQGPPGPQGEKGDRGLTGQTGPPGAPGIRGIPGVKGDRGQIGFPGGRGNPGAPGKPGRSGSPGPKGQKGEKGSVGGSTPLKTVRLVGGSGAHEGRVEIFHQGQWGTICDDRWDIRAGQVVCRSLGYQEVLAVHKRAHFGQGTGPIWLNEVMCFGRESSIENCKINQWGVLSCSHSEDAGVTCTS
Briefly: OCTET bio-layer interferometry binding kinetics, 25° C. Conditions: antibody-capture format. The method, then:
Binding affinities and kinetic constants of human anti-MSR1 antibodies for different MSR1 reagents were determined using a real time, label-free bio-layer interferometry assay on an OCTET® HTX biosensor platform (Pall FortéBio Corp., Menlo Park, Calif.). The experiment was performed at 25° C. in 10 mM HEPES, 150 mM NaCl, 3 mM EDTA, 0.05% v/v Surfactant Tween-20, and 1 mg/mL BSA, pH7.4 (HBS-EBT) buffer with the plate shaking at the speed of 1000 rpm. […] The binding of different MSR1 reagents to the captured anti-MSR1 monoclonal antibody was measured for 4 minutes and the dissociation of monoclonal antibody bound MSR1 reagent was monitored for 8-10 minutes in HBS-EBT buffer.
(§4) The association rate (ka) and dissociation rate (kd) were determined by fitting the real-time binding sensorgrams to a 1:1 binding model with mass transport limitation using Scrubber 2.0 c curve-fitting software. Binding dissociation equilibrium constant (KD) and dissociative half-life (t½) were calculated from the kinetic rates as: […]
(In BLI a coated tip is dipped into the sample, and binding shifts an interference pattern.)

The test system of assay [4] is monkey MSR1 extracellular domain (HMM-mfMSR1). Briefly: Surface plasmon resonance (Biacore 4000) binding kinetics, antibody-capture format, 25° C. and 37° C. The following applies: analyte HMM-mfMSR1. The method, then:
Binding affinities and kinetic constants of human anti-MSR1 antibodies for different MSR1 reagents were determined by real-time surface plasmon resonance (Biacore 4000). All binding studies were performed in 10 mM HEPES, 150 mM NaCl, 3 mM EDTA, and 0.05% v/v Surfactant Tween-20, pH 7.4 (HBS-ET) running buffer at 25° C. and 37° C.
as §4
A general note: SPR reads the build-up and loss of mass on a sensor chip optically.

monkey MSR1 extracellular domain (HMM-mfMSR1), sequence (as listed by the source): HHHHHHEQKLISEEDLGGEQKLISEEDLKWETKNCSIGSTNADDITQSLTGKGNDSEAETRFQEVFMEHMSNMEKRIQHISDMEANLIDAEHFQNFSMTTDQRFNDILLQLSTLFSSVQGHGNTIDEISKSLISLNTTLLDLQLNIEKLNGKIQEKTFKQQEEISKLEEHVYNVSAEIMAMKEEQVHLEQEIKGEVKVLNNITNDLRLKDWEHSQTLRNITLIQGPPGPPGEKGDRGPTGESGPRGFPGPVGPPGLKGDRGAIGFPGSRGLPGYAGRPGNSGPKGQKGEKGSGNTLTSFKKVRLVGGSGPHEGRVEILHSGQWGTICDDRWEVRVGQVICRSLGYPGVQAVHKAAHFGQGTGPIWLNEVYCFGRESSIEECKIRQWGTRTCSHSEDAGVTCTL

B1: H1H21234N-N297Q: "An anti-MSR1 antibody H1H21234N containing a N297Q mutation, which eliminates N-linked glycosylation of the Fc at this site" (antibody, V domains shown)
VH: QVQLQESGPGLVKPSETLSLTCTVTGGSISRNYWSWIRQPPGKGLEWIGYIYYSGSIDYNPSLKSRVTISVDTSKNQFSLKLSSMTAADTAVYYCARDRWNWKYGMDVWGQGTTVIVSS
VL: EIVLTQSPGTLSLSPGERATLSCRASQTVRNNYLAWYHQKPGQAPRLLIYGASSRATGIPDRFSGSGSGTDFTLTISRLEPEDFTVYYCHQYGNSPWTFGQGTKMEIKR
With B1, in assay [1], the “Ratio of 11 nM Antibody Binding Signal (RLU) to isotype control, HEK293” value is reported as 9. For the same molecule, the “Ratio of 11 nM Antibody Binding Signal (RLU) to isotype control, PMA-treated THP-1” value in assay [2] is 25. Moreover, the kd in assay [3] (analyte His9-mMSR1, * = no dissociation observed, kd manually fixed at 5.00E−05) was 5.00E−05* s^−1; in assay [4] (37° C., antibody-capture format, * = no dissociation observed, kd manually fixed at 1.00E−05) it was 1.00E−05* s^−1; in assay [4] (Biacore, 25° C., * no dissociation observed, kd fixed at 1.00E−05), 1.95e-05 s⁻¹. In addition, the ka in assay [3] (analyte His9-mMSR1, NB = no binding, IC = inconclusive) was found to be 38200 M⁻¹ s⁻¹; in assay [4] (37° C., antibody-capture format), 750000 M⁻¹ s⁻¹; in assay [4] (Biacore, 25° C.), 408000 M⁻¹ s⁻¹.
